Assay: yeast display, Sf9 membrane polyspecificity reagent, FACS + sequencing; frameworks hold sequencing errors
Outline: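 Using colony PCR, genes from sorted yeast display clones were amplified, then sequenced on MiSeq at 2 × 250 and filtered by CDR length. The clones had been stained with 10% biotinylated, detergent-solubilized Sf9 membrane reagent for 1 hour at 4 °C and sorted by FACS into low and high (top ~1%) gates on anti-HA and streptavidin fluorescence. Polyreactivity labels come from the gate of origin.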

Row | Sequence | polyreactivity (PSR sort gate)
1 | QVQLVESGGGLVQAGGSLRLSCVASGRTFSRYAMGWYRQAPGKERELVAAISLRCGRTKYADSVKGRFTISRDNAKNTVYLQMNSLKPEDTAVYYCAADIYYGYPWRYHAGYYEGFDYWGQGTQVTVSS | high polyreactivity
2 | QVQLVESGGGLVQAGGSLRLSFAASGGTFYTYVMGWYRQAPGKERELVAAISGSGGSTYYADSVKGRFTISRDNAKNTVYLQMNSLKPEDTAVYYCAAEGFVTWYRQGQVYYWGQGTQVTVSS | high polyreactivity
3 | QVQLVESGGGLVQAGGSLRLSFAASGIIFDINAMGWYRQAPGKERELVAAITTSVDSTYYADSVKGRFTISRDNAKNTVYLQMNSLKPEDTAVYYCAAGPGDSGDDYWGQGTQVTVSS | low polyreactivity
4 | QVQLVESGGGLVQAGGSLRLSFAASGIIFRYSAMGWYRQEPGKERELVAAISRSGARTYYADSVKGRFTISRDNAKNTVYLQMNSLKPEDTAVYYCATDPTSGRFYYWGQGTQVTVSS | high polyreactivity
5 | QVQLVESGGGLVQAGGSLRLSFAASGLIIFSYAMGWYRHAPGKEREIVASIRSSGGSTNYADSVKGRFTISRDNAKNTVYLQMYSLKPEDTAVYYCATRSKTSGRSYIPFNYWGQGTQVTVSS | high polyreactivity
6 | QVQLVESGGGLVQAGGSLRLSFAASGLTFYTNAMGWYRQAPGKETELVATITSGGRTSYADSVKGRFTISRDNAKNTVYLEMNRLKPEDTAVYYCADTTGWYGARYGYWGQGTQVTVSS | high polyreactivity
7 | QVQLVESGGGLVQAGGSLRLSFAASGRTFNTYTMGWYRQAPGKERELVAAITGTGGSTFYADSVKGRFTISRDNAKNTVYLQMNSLKPEDTAVYYCNADLEVTIGVYTDGFDSDYWGQGTQVTVSS | low polyreactivity
8 | QVQLVESGGGLVQAGGSLRLSFAASGSIFGFNAMGWYRPAPGKERELVAAISSGGITNYADSVKGRFTISRDNAKNTVYLQMNSLKAEDTAVYYCAARAVSEDYYEFDYWGQGTQVTVSS | low polyreactivity
9 | QVQLVESGGGLVQAGGSLRLSFAASGSILYIYAMGWYRQAPGKERELVASISRSGGRTYDADSVNGRFTISRDNAKNTVYLQMNSLKPEDTAVYYCDAVTGGGSKMDYWGQGTQVTVSS | high polyreactivity
10 | QVQLVESGGGLVQAGGSLRLSFAASGSTFDNYAMGWYRQAPGKERELVAAIRRGGSTYYADSVKGRFTISRDNAKNTVYLQMNSLKPEDTAVYYCNAPITRFEGYFYWGQGTQVTVSS | high polyreactivity
11 | QVQLVESGGGLVQAGGSLRLSFAASGSTFTYNDMGWYRQAPGKERELVARITFSSGRTYYADSVKGRFTISRDNAKNTVYLQMNSLKPEDTAVYYCARQWYWRPGYYIGQGYEYWGQGTQVTVSS | low polyreactivity
12 | QVQLVESGGGLVQAGGSLRLSFPASGFTFFGYAMGWYRQAPGKERELVAAISTIDGDTYYADSVKGRFTISRDNAKNTVYLQMNSLKPEDTAVYYCAADDYIDGDDYWGQGTQVTVSS | low polyreactivity
13 | QVQLVESGGGLVQAGGSLRLSGAASGFIFIHYAMGWYRQAPGKERELVAAIRASGTSTYYADSVKGRFTISRDNAKNTVYLQMNSLKPEDTAVYYCAAQGYLRLRTHFNYWGQGTQVTLSS | low polyreactivity
14 | QVQLVESGGGLVQAGGSLRLSGAASGLIFWGYTMGWYRQAPGKERVLVAAISRRGGRTYYADSVKGRFTISRDNAKNTVYLQMHSLKPEDTAVDYCNADITSSGPKSDYWGQGTQVTVSS | high polyreactivity
15 | QVQLVESGGGLVQAGGSLRLSGAASGRTLVPYAMGWYRQAPGKERELVAAISSGGSTNYADSVKGRFRISRDNAKNTVYLQMNSLKPEDTAVYYCAYCGQGTQVTVSS | low polyreactivity
16 | QVQLVESGGGLVQAGGSLRLSGAASGSIFNRNAMGWYRQAPGKESELVARISWTAGSTYYADSEKARFTISRDYAKNTVYLQMNSLKPEDTAVYYCNDVKGYYDLYDKFDYWGQGTQVTVSS | low polyreactivity
17 | QVQLVESGGGLVQAGGSLRLSGAASGSIFYSNARGWYRQAPGKERELVAAITVGGGRTYYADSVKGRFTISRDNAKNTVYLQMNSLKPEDTAVYYCAADSHASTYDYWGQGTQVTVSS | low polyreactivity
18 | QVQLVESGGGLVQAGGSLRLSGAASGSTCYFNAQGWFRPAPGKERELVAAITYSGGSTYYADSVKGRFTISRDNAKNTVYLQLNSLKPEDTAVYYCAAQWRRHSTRSRYYYWGQGTQVTVSS | high polyreactivity
19 | QVQLVESGGGLVQAGGSLRLSLAASGLSLRNYAMGWYRQAPGKERELVADITTGGGRTYYADSVKGRFTISRDNAKNTVYLQMNSLKPEDTAVYYCAAPTHLHGHGNQNEFYYWGQGTQVTVSS | low polyreactivity
20 | QVQLVESGGGLVQAGGSLRLSRAASGFIFSGNAMGWYRKAPGKERELVAVITTSGGSTYYADSVKGRFTISRDNAKNTVYLQMISMKPEDTAVYYCNKPGHRSGPPYDYWGQGTQVSVSS | high polyreactivity
21 | QVQLVESGGGLVQAGGSLRLSRAASGGTFFVYMGWYRQAPGKERELVADISGSGGGTYYADSVKGRFTISRDNAKNTVYLQMNSLKPEDTAVYYCATDVPTGIIRMYWGQGTQVTVSS | low polyreactivity
22 | QVQLVESGGGLVQAGGSLRLSSAANGMIYVSYAMGWYRQAPGKERELVATITRSGGSTYYADSVKGRFTISRDNAKNTVYLQMNSLKPEDTAVYYCARYWRTSGVRMDYWGQGTQVTVSS | high polyreactivity

Row | Sequence | polyreactivity (PSR sort gate)
23 | QVQLVESGGGLVQAGGSLRLSSAASARIFGYYVMGWYRQAPGKERELVARIRSGGNTYYADSVKGRFTISRDNAKNTVYLQMNSLKPEDTAVYSCNADPRTGWYIYDYWGQGTQVTVSS | high polyreactivity
24 | QVQLVESGGGLVQAGGSLRLSSAASGFIFIIYAMGWYRPAPGKERELVAGIRWSGGSTYYADSVKGRFTISRDNAKNTVYLQMNSLKPEDTAVYYCNKDRGSLTLYTYDYWGQGTQVTVSS | low polyreactivity
25 | QVQLVESGGGLVQAGGSLRLSSAASGFIIPDYGMGWYRQAPGKDSELVAAISRNGVSTYYADSVKGRFTISRDTAKNTVYLQMNSLKPEATAVYYCAARYYRIRRVSKSGYYWGQGTQVTVSS | low polyreactivity
26 | QVQLVESGGGLVQAGGSLRLSSAASGFISPSYALGWYRPAPGTERELDAAIRSSDGSTYYADSVKGRFTISRDTAMNSVYLQMNSLKPEDTAVYYCAGGGSYYRDDYWGQGTQVTVSS | low polyreactivity
27 | QVQLVESGGGLVQAGGSLRLSSAASGFTFARYAMGWYRQAPGKERELVAAITFSGTRTYYADSVKGRFTISRDNAKNTVYLQMNSLKPEDTAVYYCAAVVQTKAYRKAVYYFSSYDYWGQGTQVTVSS | high polyreactivity
28 | QVQLVESGGGLVQAGGSLRLSSAASGFTFDYNTMGWDRQAPGKERELVAGISRGGGSTYYADSVKGRFTISRDNAKNTVYLQMNSLKPEDTAVYYCNTVLKRQRKNEYWGQGTQVTVSS | high polyreactivity
29 | QVQLVESGGGLVQAGGSLRLSSAASGFTFKAYVMGWYRQAPGKERELVAASTRSGSSTYYADSVKGRFTISRDNGKNSVYLQMYSLKPEDTAVYYCAARYTQRPRRNYWGQVTQVTVSS | high polyreactivity
30 | QVQLVESGGGLVQAGGSLRLSSAASGFTFPVYAMGWYRPATGKESELVAAISRRGGRTYYADSVKGRFTISRDNAKNRVYLQMNCLKPEDSAVYYCNKGETLYGSVPYDYWGQGTQLTVSS | high polyreactivity
31 | QVQLVESGGGLVQAGGSLRLSSAASGFTFRIYAMGWYRQAPGKERELVATISWSGTSTYYADSVKGRFTISRDNAKNTVYLQMNSLKPEDTAVYYCAKDGVSFYWLNKYYYWGQGTQVTVSS | low polyreactivity
32 | QVQLVESGGGLVQAGGSLRLSSAASGFTFRRYAMGWYRQAPGKERELVAAISTSGGNTYYADSVKGRFTISRDNAKNTVYLQMNSLKPEDTAVYYCYARRKDNGHGTPFDDYWGQGTQVTVSS | high polyreactivity
33 | QVQLVESGGGLVQAGGSLRLSSAASGFTFSGYAMGWYRQAPVKERELVAAISSSGASTYYADSVKGRFTISRDNAKNTVYLQIHSLKPEDTAVYYCAAGTRLSDGYYWGQGTQVTVSS | high polyreactivity
34 | QVQLVESGGGLVQAGGSLRLSSAASGFTFSLYRMGWYRQAPGKERELVASISNRGGTFYADSVKGRFTISRDNAKNTVYVQMNSLKPEETAVYYCARKTYYTGDFLGREYGYWGQGPQVTVSS | low polyreactivity
35 | QVQLVESGGGLVQAGGSLRLSSAASGFTFVGYAMGWSRQAPGKERELVAAITGRGGTTYYADSVKGRFTISRDNAKNTVYLQMNSLKPEDTSVYYCAADTPSFWTEVDSWGQGTQVTLSS | low polyreactivity
36 | QVQLVESGGGLVQAGGSLRLSSAASGGIFQLYAMGWYRQAPGKERELVADISRSGGSTYYADSVKGRFTISRDTAKNTVYLQMNSLKPEDTAVYYCAARYWTSIVRYRGDYWGQGTQVTVSS | high polyreactivity
37 | QVQLVESGGGLVQAGGSLRLSSAASGGIFRYNAMGWYRQAPGKERELVAGISYRGGTTYYADSVKGRFTISRDNAKNTVYLQMNSLKPEDTAVYYCAAAASSPGGWFYYWGQVTQVTVSS | high polyreactivity
38 | QVQLVESGGGLVQAGGSLRLSSAASGGIFSRYGMGSYRQAPGKERELVAAITWSGGRTYYADSVKGRFTISRDNAKNTVYLQMNSLKPEETAVYYCAALETSFSSVGYEYWGQGTQVTVSS | high polyreactivity
39 | QVQLVESGGGLVQAGGSLRLSSAASGIIFPGYAMVWYRQAPGKERELVAAISSGGDTYYADSVKGRFTISRDNAKNTVYLQMNSLKPEDTGVYYCTAAQLSSDRTSNYGYYPWYEYWGQGTQVTVSS | low polyreactivity
40 | QVQLVESGGGLVQAGGSLRLSSAASGITFERNGMGWYRQAPGKERELVAAIRSGGSTYYADSVKGRFTISRDNAKITVYLQMNSQKPEDTAVYYCAAVTQGGYTYLGDYWGQGTQVTVSS | low polyreactivity
41 | QVQLVESGGGLVQAGGSLRLSSAASGITFFHYAMGWYRQEPGKERELVATISWRAGSTYADSVKGRFTISRDNAKKTVYLQMNSLKPEDTAVYYCNAVWTYHSGSGGYLFDYWGLGTQVTVSS | low polyreactivity
42 | QVQLVESGGGLVQAGGSLRLSSAASGITFYFYVMGWYRQAPGKERELVADISTSDDSTYYADSVKGRFTISRDNAKNTVYLQMNSLKPEDTAVYYCATATRTYSAWYEYDYWGQGTQVTVSS | low polyreactivity
43 | QVQLVESGGGLVQAGGSLRLSSAASGLIFYSYTMGWNRQAPGKERELVAVISRSGTSTYYADSVKGRFTISRDNAKNTVYLQMNSLKPEDTSVYYCAALTRSGPYAYEYWGQGTQVTVSS | high polyreactivity

— the nanobody polyreactivity screen of Harvey et al. (2022)
